Substrate in the data set: NC(=O)CCCC[C@@H](S)CCS
As to the kind of experiment: purified protein. The following applies: 100 mM Na phosphate, 100 mM KCl, 8 mM TCEP pH 7.6, room temperature.

Broadly, the Km is the substrate concentration at which the rate is half of its maximum.

B1: Lpd (dihydrolipoamide dehydrogenase; lipoamide dehydrogenase) (Escherichia coli K-12) (protein)
chain: MSTEIKTQVVVLGAGPAGYSAAFRCADLGLETVIVERYNTLGGVCLNVGCIPSKALLHVAKVIEEAKALAEHGIVFGEPKTDIDKIRTWKEKVINQLTGGLAGMAKGRKVKVVNGLGKFTGANTLEVEGENGKTVINFDNAIIAAGSRPIQLPFIPHEDPRIWDSTDALELKEVPERLLVMGGGIIGLEMGTVYHALGSQIDVVEMFDQVIPAADKDIVKVFTKRISKKFNLMLETKVTAVEAKEDGIYVTMEGKKAPAEPQRYDAVLVAIGRVPNGKNLDAGKAGVEVDDRGFIRVDKQLRTNVPHIFAIGDIVGQPMLAHKGVHEGHVAAEVIAGKKHYFDPKVIPSIAYTEPEVAWVGLTEKEAKEKGISYETATFPWAASGRAIASDCADGMTKLIFDKESHRVIGGAIVGTNGGELLGEIGLAIEMGCDAEDIALTIHAHPTLHESVGLAAEVFEGSITDLPNPKAKKK
As for B1, the Km came out at 180 ± 20 µM.

For the origin of these results see article doi:10.1101/2021.02.08.430375v1.
